Reference: patent US20260234247A1 (published 2026)
Each block holds one binder with its values, some of them ahead of it.

Key:
[1] = biological target: T1, Cynomolgus LILRB2 on CHOK1 cells (cynomolgus); test: flow cytometry on CHOK1-cyno LILRB2 cells
T1 construct: whole, on cells; also called CHOK1-Cyno LILRB2
Description: Anti-LILRB1 and anti-LILRB2 antibodies were also screened for their ability to bind rhesus macaque LILRB1 (Kactusbio, LLC: LIL-CM1B1 and LIL-CM1B3), cynomolgus LILRB1 (Kactusbio, LLC: LIL-CM1B2) and cynomolgus LILRB2 (Kactusbio, LLC: LIL-CM1B5) by ELISA and flow cytometry.

Biotinylated LILRB2 [2] = biological target: T2, Biotinylated LILRB2 (UniProt Q8N423 22-460, limits assumed, biotinylated (sites not given)); test: epitope binning ELISA; coated antibody 1 ug/ml, biotinylated LILRB2; competitor J19.h1 at 20 ug/ml
T2 construct: also called biotinylated-LILRB2 protein
T2 sequence (Q8N423 22-460 limits assumed): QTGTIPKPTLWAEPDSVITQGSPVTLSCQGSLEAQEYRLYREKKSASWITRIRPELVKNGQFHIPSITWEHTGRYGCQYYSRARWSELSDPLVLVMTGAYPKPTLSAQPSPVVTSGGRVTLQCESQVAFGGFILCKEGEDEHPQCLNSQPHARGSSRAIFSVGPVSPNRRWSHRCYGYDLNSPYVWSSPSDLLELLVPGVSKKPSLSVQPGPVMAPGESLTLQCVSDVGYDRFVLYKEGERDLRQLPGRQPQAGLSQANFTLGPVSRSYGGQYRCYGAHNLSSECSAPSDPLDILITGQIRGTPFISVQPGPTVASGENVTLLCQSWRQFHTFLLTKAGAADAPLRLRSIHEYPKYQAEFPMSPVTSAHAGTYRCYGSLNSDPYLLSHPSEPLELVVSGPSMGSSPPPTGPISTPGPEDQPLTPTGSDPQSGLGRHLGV

Biotinylated LILRB2 [3] = biological target: T2, Biotinylated LILRB2; test: epitope binning ELISA; coated antibody 1 ug/ml, biotinylated LILRB2; competitor LK-RB2-2 at 20 ug/ml
Protocol: (§1) Binding epitope of a subset of anti-LILRB1 and anti-LILRB2 antibodies was analyzed by epitope binning ELISA. Briefly, a panel of testing antibodies were coated onto ELISA plate. 50 ul/well Biotinylated LILRB1 or LILRB2 and 50 ul/well of competing antibodies were added to the coated plate and incubated at 37° C. for 1 hour. After Streptavidin-HRP (1:5000) incubation and TMB development, the plates were read at 450 nm using Molecular device spectra max plus384.

Biotinylated LILRB2 [4] = biological target: T2, Biotinylated LILRB2; test: epitope binning ELISA; coated antibody 1 ug/ml, biotinylated LILRB2; competitor LK-RB2-3 at 20 ug/ml
Protocol: as §1

Biotinylated LILRB2 [5] = biological target: T2, Biotinylated LILRB2; test: epitope binning ELISA; coated antibody 1 ug/ml, biotinylated LILRB2; competitor LK-RB2-14 at 20 ug/ml
Protocol: as §1

Biotinylated LILRB2 [6] = biological target: T2, Biotinylated LILRB2; test: epitope binning ELISA; coated antibody 1 ug/ml, biotinylated LILRB2; competitor LK-RB2-15 at 20 ug/ml
Protocol: as §1

Biotinylated LILRB2 [7] = biological target: T2, Biotinylated LILRB2; test: epitope binning ELISA; coated antibody 1 ug/ml, biotinylated LILRB2; competitor LK-RB2-24 at 20 ug/ml
Protocol: as §1

Biotinylated LILRB2 [8] = biological target: T2, Biotinylated LILRB2; test: epitope binning ELISA; coated antibody 1 ug/ml, biotinylated LILRB2; competitor hz73D1.v1 at 20 ug/ml
Protocol: as §1

[9] = biological target: T3, Rhesus LILRB1 (F7H3G7) on CHOK1 cells (rhesus macaque); test: flow cytometry on CHOK1-rhesus LILRB1 (F7H3G7) cells
T3 construct: whole, on cells; also called CHOK1-Rhesus LILRB1 (F7H3G7)

human LILRA1 [10] = biological target: T4, human LILRA1 (human, UniProt O75019 17-461, limits assumed); test: ELISA, antibody at 200 nM, OD450; + = 2-fold over ISO
T4 construct: Bought protein; also called hLILRA1
T4 sequence (O75019 17-461 limits assumed): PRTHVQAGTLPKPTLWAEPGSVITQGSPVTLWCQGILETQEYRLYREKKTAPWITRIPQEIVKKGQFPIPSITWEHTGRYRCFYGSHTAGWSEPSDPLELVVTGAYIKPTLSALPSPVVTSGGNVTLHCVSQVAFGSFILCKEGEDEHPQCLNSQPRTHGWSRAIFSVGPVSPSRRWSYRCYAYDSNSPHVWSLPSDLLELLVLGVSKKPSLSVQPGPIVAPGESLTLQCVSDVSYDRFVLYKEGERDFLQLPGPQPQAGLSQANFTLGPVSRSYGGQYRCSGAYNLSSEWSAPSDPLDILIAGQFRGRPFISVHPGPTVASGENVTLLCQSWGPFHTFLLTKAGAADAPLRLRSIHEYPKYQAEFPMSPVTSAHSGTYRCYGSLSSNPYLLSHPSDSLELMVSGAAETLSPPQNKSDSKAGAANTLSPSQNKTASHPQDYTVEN
Protocol: (§2) To further confirm binding affinity, selected clones were assayed in ELISA or FACS in a range of testing concentrations.

human LILRB1-his = biological target: T5, human LILRB1-his (human, UniProt Q8NHL6 24-458, limits assumed); test: SPR (Biacore 8K), antibody captured via Fc, LILRB1-his as analyte, 1:1 model
T5 construct: Analyte of the Biacore run; not shown: His tag
T5 sequence (Q8NHL6 24-458 limits assumed): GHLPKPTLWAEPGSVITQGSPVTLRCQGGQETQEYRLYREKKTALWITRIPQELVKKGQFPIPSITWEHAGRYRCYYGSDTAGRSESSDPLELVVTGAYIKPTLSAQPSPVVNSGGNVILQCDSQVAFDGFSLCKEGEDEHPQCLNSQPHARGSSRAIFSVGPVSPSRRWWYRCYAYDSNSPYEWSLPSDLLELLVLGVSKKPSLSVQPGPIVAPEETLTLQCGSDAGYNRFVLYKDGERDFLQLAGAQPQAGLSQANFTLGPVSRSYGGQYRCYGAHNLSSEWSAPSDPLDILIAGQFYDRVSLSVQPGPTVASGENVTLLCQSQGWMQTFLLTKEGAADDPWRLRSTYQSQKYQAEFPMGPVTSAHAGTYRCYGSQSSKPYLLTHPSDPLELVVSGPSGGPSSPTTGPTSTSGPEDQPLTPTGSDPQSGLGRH

human LILRB2-his = biological target: T6, human LILRB2-his (human, UniProt Q8N423 22-460, limits assumed); test: SPR (Biacore 8K), antibody captured via Fc, LILRB2-his as analyte, 1:1 model
T6 construct: Analyte of the Biacore run; not shown: His tag
T6 sequence (Q8N423 22-460 limits assumed): as the sequence (Q8N423 22-460 limits assumed) above

human LILRA1 [11] = biological target: T7, human LILRA1 (human, UniProt O75019 17-461, limits assumed); test: ELISA, OD450, antibody at 200 nM; + = 2-fold over ISO
T7 construct: bought protein coated for ELISA; also called hLILRA1
T7 sequence (O75019 17-461 limits assumed): as the sequence (O75019 17-461 limits assumed) above
Protocol: as §2

human LILRA3 = biological target: T8, human LILRA3 (human, UniProt Q8N6C8 24-439); test: as above
T8 construct: bought protein coated for ELISA; also called hLILRA3
T8 sequence (Q8N6C8 24-439 limits assumed): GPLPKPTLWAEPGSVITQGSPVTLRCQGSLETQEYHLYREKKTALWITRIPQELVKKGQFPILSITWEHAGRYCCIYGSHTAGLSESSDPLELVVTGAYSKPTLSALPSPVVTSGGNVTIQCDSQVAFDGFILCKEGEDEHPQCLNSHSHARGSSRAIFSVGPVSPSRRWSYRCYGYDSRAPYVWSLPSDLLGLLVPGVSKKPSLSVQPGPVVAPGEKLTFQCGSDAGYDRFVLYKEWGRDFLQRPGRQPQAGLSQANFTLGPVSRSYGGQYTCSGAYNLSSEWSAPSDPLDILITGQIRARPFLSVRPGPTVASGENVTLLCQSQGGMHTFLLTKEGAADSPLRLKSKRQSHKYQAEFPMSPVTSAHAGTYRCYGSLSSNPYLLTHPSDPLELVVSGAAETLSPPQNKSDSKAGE
Protocol: as §2

B1: LK-RB1-39 (antibody, human IgG4 S228P, kappa, V domains shown)
VH: EVQLQQSGAELVRPGASVKLSCTASGFNIKDDYVHWVNQRPEQGLEWIGWIDPENGDTGYASKFQDKATITADTSSNTAYLHLSSLTSEDTAVYYCTTTRWTGSYWGQGTTLTVSS
VL: QIVLTQSPAIMSASPGEKVTITCSASSSVNYMHWFQQKPGSSPKLWIYSTANLASGVPARFSGSGSGTSYSLTISRMEAEDAATYYCQQRSSYPPTWTFGGGTKLEIKR
notes: Anti-LILRB1 antibody
EC50 [1]: 0.36 nM

B3: 15G8 (antibody, human IgG4 S228P, kappa, V domains shown)
VH: DVQLQGSGPGLVKPSETLSLTCSVTGYSITSGYYWNWIRQFPGKKLEWMGYISYDGSNNYNPSLKNRITISRDTSKNQFSLKLNSVTAADTATYYCAHGYSYYYAMDAWGQGTSVTVSS
VL: DIQMTQSPSSLSASVGDRVTITCRTSQDISNYLNWYQQKPGKAVKLLISYTSRLHSGVPSRFSGSGSGTDYTLTISSLQPEDFATYYCQQGNTLPTFGQGTKLEIKR
EC50 [1]: 2.15 nM
EC50 [9]: 760 nM

B6: LK-RB1-48 (antibody, human IgG4 S228P, kappa, V domains shown)
VH: EVKLVESGGGLVQPGGSLKLSCAASGFTFSDYYMYWVRQTPEKRLEWVAYISNGGGISFYPDTVKGRFTISRDNAKNTLYLQMSRLKSEDTAIYYCASATKEVGAMDYWGQGTSVTVSS
VL: DIVMTQSQKFLSTTVGDRVSITCKASQNVGTAVAWYQQKPGQSPKILIYSASNRYTGVPDRFTGSGSGTDFTLTISNMQSEDLADYFCQQYSSYRTFGGGTKLEIKR
notes: anti-LILRB1 clone from mouse hybridoma
binding result (human LILRA1 [11]): binds

B8: LK-RB1-5 (antibody, human IgG4 S228P, kappa, V domains shown)
VH: QVQLQQPGAELVKPGASVKLSCKASGYTFTDFWIHWVKQRPGQGLEWIGMIHPNSGSTNFNEKFRAKATLTVDKSSSTAYMRLSSLTSEDSAVYYCARSGDGYSNPMDYWGQGTSVTVSS
VL: QIVLSQSPAILSASPGEKVTLTCRASSSVSYMHWYQQKPGSSPKPWIYATSNLASGVPVRFSGSGSGTSYSLTISRMQTEDAATYYCQQWRRSPYTFGGGTKLEIKR
notes: Anti-LILRB1 antibody
EC50 [1]: 1.16 nM
EC50 [9]: 1.51 nM

B9: LK-RB2-2 (antibody, human IgG4 S228P, kappa, V domains shown)
VH: DVKLEESGEGLVKPGGSLKLSCAASGFTFSSYAMSWVRQTPEKRLEWVAYISSGGDYFHYADTVKGRFTISRDNARNTLYLQMSSLKSEDTAMYYCTREGAHYDSSYLAWFAHWGQGTLVTVSA
VL: DIQMTQSPASLSVSVGETVTITCRASENIYSNLAWYQQRQGKSPQLLVYAATNLADGVPSRFSGSGSGTQYSLKINSLQSEDFGSYYCQQFWDNPLTFGAGTKLELKR
notes: Anti-LILRB2 antibody from mouse hybridoma; parental antibody of LK-RB2-2.h1 to h3
Kd (human LILRB2-his): 0.168 nM
koff (human LILRB2-his): 0.000134 s⁻¹
kon (human LILRB2-his): 800000 M⁻¹ s⁻¹
Inhibition % (Biotinylated LILRB2 [2]): 69.6%
Inhibition % (Biotinylated LILRB2 [3]): 97.8%
Inhibition % (Biotinylated LILRB2 [4]): 93.9%
Inhibition % (Biotinylated LILRB2 [5]): 89.4%
Inhibition % (Biotinylated LILRB2 [6]): 13.6%
Inhibition % (Biotinylated LILRB2 [7]): 17.7%
Inhibition % (Biotinylated LILRB2 [8]): 92.8%

B12: J19.h1 (antibody, human IgG4 S228P, kappa, V domains shown)
VH: QITLKESGPTLVKPTQTLTLTCTFSGFSLNTYAMGVSWIRQPPGKALEWLASIWWNGNKYNNPSLKSRLTVTKDTSKNQVVLTMTNMDPVDTATYYCAHSRIIRFTDYVMDAWGQGTLVTVSS
VL: DIQMTQSPSSLSTSVGDRVTITCRASEDIYNDLAWYQQKPGKAPKLLIYNANSLHTGVASRFSGSGSGTDFTFTISSLQPEDVATYFCQQYYDYPLTFGQGTKLEIKR
Inhibition % (Biotinylated LILRB2 [2]): 92.5%
Inhibition % (Biotinylated LILRB2 [3]): 97.8%
Inhibition % (Biotinylated LILRB2 [4]): 93.9%
Inhibition % (Biotinylated LILRB2 [5]): 96.1%
Inhibition % (Biotinylated LILRB2 [6]): 17.5%
Inhibition % (Biotinylated LILRB2 [7]): 44.5%
Inhibition % (Biotinylated LILRB2 [8]): 95.9%

B13: LK-RB2-8 (antibody, human IgG4 S228P, kappa, V domains shown)
VH: QIQLVQSGPELKKPGETVKISCKASGYSFASYGMGWVKQAPGKGLKWLGWINTHSGVPTYADDFKGRFAFSLETSASTAYLQINNLKNEDTATYFCAHYGRPWFPYWGQGTLVTVSA
VL: DIQMTQSPASLSASVGETVTITCRTSENIYSYLAWYQQKQGKSPQLLVYNAKSLAEGVPSRFSGSGSGTQFSLRINSLQPEDFGTYYCQQHYETPLTFGAGTKLELKR
notes: Anti-LILRB2 antibody
EC50 [1]: 19.8 nM

B14: LK-RB2-16 (antibody, human IgG4 S228P, kappa, V domains shown)
VH: QIQLVQSGPELKKPGETVKISCKASGYTFTTYGMGWVKQAPEKGLKWMGWINTNSGAPTYGDDFKGRFAFSLETSASTAYLQINNLKNEDTATYFCAHYGRPWFAYWGQGTLVTVSA
VL: DIQMTQSPASLSASVGETVTITCRASENIYSYLAWYHQKQGESPQLLVYNAKTLAEGVPSRFSGSGSGTQFSLKINSLQPEDFGSYYCQHHYNIPLTFGAGTKLELKR
notes: Anti-LILRB2 antibody
EC50 [1]: 5.45 nM

Further lines, results first:

Inhibition % (Biotinylated LILRB2 [2]): 74.8%
Inhibition % (Biotinylated LILRB2 [3]): 97.8%
Inhibition % (Biotinylated LILRB2 [4]): 65.3%
Inhibition % (Biotinylated LILRB2 [5]): 91.8%
Inhibition % (Biotinylated LILRB2 [6]): 6.43%
Inhibition % (Biotinylated LILRB2 [7]): 22.4%
Inhibition % (Biotinylated LILRB2 [8]): 96.8%
B2: hz73D1.v1 (antibody, human IgG4 S228P, kappa, V domains shown)
VH: QVQLVQSGAEVKKPGASVKVSCKASGYTFTDYYINWVRQAPGQGLEWMGNVNPNDGGTTYNQKFKGRVTMTTDTSTSTAYMELRSLRSDDTAVYYCARREIYFYGTIYYYAMDYWGQGTLVTVSS
VL: DIQLTQSPSFLSASVGDRVTITCRASESVDYYGNSFMYWYQQKPGKAPKLLIYFASNLESGVPSRFSGSGSGTEFTLTISSLQPEDFATYYCQQNNEDPWTFGGGTKVEIKR

binding result (human LILRA1 [10]): binds
B4: LK-RB2-24 (antibody, human IgG4 S228P, kappa, V domains shown)
VH: QIQLVQSGPEVKKPGETVKISCKASGYTFTTYGMSWVKQAPGKGLKWMGWLNIYSGVPAYADDFKGRFAFSLESSASTAYLQINNLKNEDTATYFCARRENYDGYGMDYWGQGTSVTVSS
VL: DIVMTQSPATLSVTPGDRVSLSCRASQSISDYLHWYQQKSHESPRLLIKYASQSISGIPSRFSGSGSGSDFTLSINSVEPEDVGVYYCQNGHSFPYTFGGGTKLEIKR

Kd (human LILRB1-his): 21.1 nM
koff (human LILRB1-his): 0.00406 s⁻¹
kon (human LILRB1-his): 192000 M⁻¹ s⁻¹
Kd (human LILRB2-his): 0.51 nM
koff (human LILRB2-his): 0.000484 s⁻¹
kon (human LILRB2-his): 950000 M⁻¹ s⁻¹
Inhibition % (Biotinylated LILRB2 [2]): -4.04%
Inhibition % (Biotinylated LILRB2 [3]): 48.4%
Inhibition % (Biotinylated LILRB2 [4]): 25.9%
Inhibition % (Biotinylated LILRB2 [5]): 91.1%
Inhibition % (Biotinylated LILRB2 [6]): 95.2%
Inhibition % (Biotinylated LILRB2 [7]): 95.7%
Inhibition % (Biotinylated LILRB2 [8]): 22.1%
B5: LK-RB2-24 (antibody, human IgG4 S228P, kappa, V domains shown)
VH: QIQLVQSGPEVKKPGETVKISCKASGYTFTTYGMSWVKQAPGKGLKWMGWLNIYSGVPAYADDFKGRFAFSLESSASTAYLQINNLKNEDTATYFCARRENYDGYGMDYWGQGTSVTVSS
VL: DIVMTQSPATLSVTPGDRVSLSCRASQSISDYLHWYQQKSHESPRLLIKYASQSISGIPSRFSGSGSGSDFTLSINSVEPEDVGVYYCQNGHSFPYTFGGGTKLEIKR
notes: Anti-LILRB2 antibody from mouse hybridoma; parental antibody of LK-RB2-24.h1 to h3

binding result (human LILRA1 [11]): binds
B7: LK-RB1-55 (antibody, human IgG4 S228P, kappa, V domains shown)
VH: EVKLVESGGGLVQPGGSLKLSCAASGFTFSDYYMYWVRQTPEKRLEWVAYISNGGDITFYPDTVKGRFTISRDNARSTLYLQMSRLKSEDTAIYYCASATTEVGAMDHWGQGTSVTVSS
VL: DIVMTQSQKFMSTTVGDRVSITCKASQNVGTAVAWYQQKPGKSPKLLIYAASNRYTGVPDRFTGSGSGTDFTLTISNMQSEDLADYFCQQYSSYRTFGGGTNLEIKR
notes: as for B6

binding result (human LILRA3): binds
B10: LK-RB1-3 (antibody, human IgG4 S228P, kappa, V domains shown)
VH: QVQLQQPGAELVKPGTSVNLSCKASGYTFTSYWIHWVKQRPGRGLEWIGRINPYSSGTRYNEKFKNKATLTVDKPSSTAYMQLTSLTSEDSAVYYCARFDGAPDYFDFWGQGTTLTVSS
VL: DIVMTQSQKFMPTSVGDRVNVTCKASQNVGINVAWYQQKLGQSPKALIYSASYRYSGVPDRFTGSGSGTDFTLTINSVQSEDLADYFCQQYNNYPFTFGSGTKLEIKR
notes: anti-LILRB1 antibody

EC50 [1]: 0.4 nM
B11: LK-RB2-47 (antibody, human IgG4 S228P, kappa, V domains shown)
VH: QVQLKQSGPGLVQPSQSLSITCTVSGFSLISYGVHWVRQSPGKGLEWLGVIWSGGSTDYNAAFISRLSISKDNSKSQVFFKMNSLQADDTAIYYCARSFHYHGSTFDYWGQGTTLTVSS
VL: DIQMTQTTSSLSASLGDRVIISCRASQDINNYLNWYQQKPDGTVKLLIYFTSRLHSGVPSSFSGSGSGTDYSLTINNLEQEDIATYFCQQVNTLPYTFGGGTKLEIKR
notes: Anti-LILRB2 antibody

binding result (human LILRA3): binds
B15: LK-RB1-4 (antibody, human IgG4 S228P, kappa, V domains shown)
VH: QVQLQQPGAELVKPGASVKLPCKTSGYTFTSYWMHWVKQRPGRGLEWIGRIDPHYSGTKYNEKFKNKATMTVDTPSSTAYMQLSSLTSEDSAVYYCARFDGDPYYFDYWGPGTTLTVSS
VL: DIVMTQSQKFMSTSVGDRVSVTCKASQNVGTNVAWYKQKAGQSPKAVIYSASYRYSGVPDRFTGSGSGTDFTLSISNVQSEDLAEYFCQQYNNNPFTFGSGTKLEIKR
notes: anti-LILRB1 antibody
